In the supplement of paper PMC10126150:
± gives the standard deviation of the averaged measurements.

Tested on: ATP
Assay: switch fluorescence ratio, 500 uM ATP over buffer (Cy3 cluster intensity, sum of 5 cycles each) (fold (ratio)); higher = stronger signal-on switching upon ATP binding; sequences stand for … in TCGTCGGCAGCGTCAGATGTGTATAAGAGACAGTTTTTTTTTTTTTTTTTTTTTTTTT…TC
Conditions: aptamer strand: ATP DNA aptamer (quencher-CACCTGGGGGAGTATTGCGGAGGAAGG + anchor), 100 nM annealed; ATP concentration: 500 uM
How it was run: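 Five buffer/ATP imaging cycles were run on Cy3-labelled switching-strand clusters on a modified Illumina MiSeq flow-cell, with NaOH stripping and re-annealing between cycles. In each cycle, clusters annealed to 100 nM quencher-labelled ATP aptamer were imaged in selection buffer, then after 15 min with 500 uM ATP at 22 °C. Per cluster, the fluorescence ratio is summed target-cycle over summed buffer-cycle Cy3 intensity, averaged per switch-domain sequence. Only clusters within 100-1000 RFU were kept.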
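Note: ATP exposure 15 min at 22 °C before imaging.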

Sequence | switch fluorescence ratio
AAGGGGAATG | 1.02 ± 0.056
AAGGGGACAG | 0.995 ± 0.03
AAGGGGAGAA | 0.9872 ± 0.008
AAGGGGCGT | 0.9961 ± 0.0036
AAGGGGGCAT | 0.979 ± 0.033
AAGGGGGCCT | 1 ± 0.024
AAGGGGGGA | 1.01 ± 0.072
AAGGGGGTTA | 0.991 ± 0.025
AAGGGGTTCG | 1.05 ± 0.023
AAGGGGTTCT | 1.01 ± 0.016
AAGGGTATAT | 0.9834 ± 0.0063
AAGGGTATTG | 0.995 ± 0.024
AAGGGTCAAA | 0.985 ± 0.048
AAGGGTCAGC | 0.9917 ± 0.0081
AAGGGTCTCG | 1.03 ± 0.095
AAGGGTGGGA | 1.01 ± 0.039
AAGGGTGGGG | 1 ± 0.058
AAGGGTTAT | 0.995 ± 0.017
AAGGGTTTAA | 0.98 ± 0.018
AAGGTAGTGG | 0.962 ± 0.017
AAGGTCAAGC | 1 ± 0.063
AAGGTCCATG | 0.9631 ± 0.0013
AAGGTCGGGA | 0.9966 ± 0.0087
AAGGTCTTAG | 0.968 ± 0.039
AAGGTGAAGA | 1.04 ± 0.029
AAGGTGATAG | 1 ± 0.019

Sequence | switch fluorescence ratio
AAGGTGCGGG | 0.999 ± 0.023
AAGGTGCTGC | 1.035 ± 0.0022
AAGGTGGGCC | 0.985 ± 0.019
AAGGTGGGTT | 1.01 ± 0.059
AAGGTTACCG | 1.04 ± 0.021
AAGGTTAGAC | 1.03 ± 0.012
AAGGTTATGC | 0.987 ± 0.039
AAGGTTCTGA | 0.981 ± 0.016
AAGGTTCTGG | 0.9883 ± 0.0083
AAGGTTGTTT | 0.983 ± 0.03
AAGTAAACAT | 1.06 ± 0.036
AAGTAACTC | 1.03 ± 0.027
AAGTAAGGGC | 1.02 ± 0.031
AAGTACGTAG | 1.011 ± 0.0065
AAGTACGTTC | 1.25 ± 0.035
AAGTACTTTA | 1.14 ± 0.013
AAGTACTTTT | 1.2 ± 0.055
AAGTAGGCAC | 1.022 ± 0.0018
AAGTAGTCCC | 1.3 ± 0.39
AAGTATGGGT | 0.998 ± 0.028
AAGTATGGTA | 0.965 ± 0.075
AAGTCCAAGA | 1.01 ± 0.033
AAGTCCCAGC | 0.995 ± 0.048
AAGTCCCTTC | 1.01 ± 0.035
AAGTCCGGGG | 0.9698 ± 0.0013
AAGTCGAAGT | 0.98568 ± 0.00082

Sequence | switch fluorescence ratio
AAGTCGACAC | 1.02 ± 0.032
AAGTCGACGT | 1.03 ± 0.041
AAGTCGATTG | 0.99 ± 0.017
AAGTCGTCCG | 0.985 ± 0.044
AAGTGAAACA | 1.03 ± 0.037
AAGTGCATGC | 1.01 ± 0.11
AAGTGCTTGA | 1 ± 0.069
AAGTGGAGGC | 1.04 ± 0.0072
AAGTGGAGTG | 0.999 ± 0.041
AAGTGGCTGT | 0.941 ± 0.027
AAGTGGGACC | 1.02 ± 0.025
AAGTGGGCGC | 0.984 ± 0.016
AAGTGGGGGT | 1 ± 0.039
AAGTGGGGTC | 0.948 ± 0.037
AAGTGGTGTC | 0.99 ± 0.13
AAGTGGTGTT | 0.984 ± 0.028
AAGTGTAAGG | 1.018 ± 0.0039
AAGTGTCGGG | 0.994 ± 0.025
AAGTTACCTG | 1.087 ± 0.0019
AAGTTATGGC | 0.9598 ± 0.0046
AAGTTCACGG | 1.06 ± 0.025
AAGTTCATCT | 1 ± 0.07
AAGTTCGCCA | 0.994 ± 0.01
AAGTTCGTAA | 1.03 ± 0.0079
AAGTTGACGG | 0.985 ± 0.011
AAGTTGATTA | 1.006 ± 0.004

Sequence | switch fluorescence ratio
AAGTTGATTG | 1.023 ± 0.0031
AAGTTGCACC | 1 ± 0.067
AAGTTGGTGG | 0.987 ± 0.033
AAGTTGTTTC | 0.988 ± 0.013
AAGTTTATTA | 0.964 ± 0.017
AAGTTTCTG | 0.9892 ± 0.0025
AAGTTTGCGT | 0.993 ± 0.022
AAGTTTGTGT | 1.02 ± 0.0045
AAGTTTTATC | 0.989 ± 0.021
AAGTTTTCGC | 0.9789 ± 0.0067
AAGTTTTTCG | 1.01 ± 0.014
AATAAAATCG | 1.04 ± 0.01
AATAAAGAAT | 0.973 ± 0.019
AATAAATAGG | 0.9953 ± 0.0053
AATAAATCTA | 1.039 ± 0.0016
AATAACGATC | 1.037 ± 0.0063
AATAACGGTG | 1.07 ± 0.019
AATAAGAAGG | 0.999 ± 0.013
AATAAGAGTT | 0.995 ± 0.05
AATAAGATTG | 0.987 ± 0.022
AATAAGCTCG | 0.9792 ± 0.0018
AATAAGGGGC | 1.0051 ± 0.00093
AATAATAGGT | 1.016 ± 0.007
AATAATCAGG | 0.9926 ± 0.0086
AATAATTGGG | 0.9967 ± 0.0012
AATACCGTT | 0.968 ± 0.055

Sequence | switch fluorescence ratio
AATACCTGAA | 1.17 ± 0.017
AATACGATGC | 1.2 ± 0.091
AATACGGCAC | 1.852 ± 0.006
AATACGTATA | 1.1 ± 0.068
AATACGTGGA | 1.029 ± 0.0036
AATACTGGTT | 1.04 ± 0.021
AATAGAAGGA | 0.9888 ± 0.0037
AATAGAATTT | 0.997 ± 0.035
AATAGCATGT | 0.981 ± 0.012
AATAGCTAAA | 0.999 ± 0.03
AATAGGAAGG | 1.01 ± 0.046
AATAGGAATG | 0.996 ± 0.017
AATAGGGCG | 1.038 ± 0.0084
AATAGGGTTA | 1 ± 0.045
AATAGGGTTC | 0.982 ± 0.025
AATAGGTCAT | 1.02 ± 0.028
AATAGGTGGG | 0.951 ± 0.016
AATAGTACAA | 1.04 ± 0.0056
AATAGTACTG | 1 ± 0.071
AATAGTAGGG | 1.01 ± 0.017
AATAGTCGGC | 1 ± 0.042
AATAGTGGTT | 1.004 ± 0.0033
AATAGTTCTG | 0.951 ± 0.043
AATATAACCT | 1.94 ± 0.092
AATATACTTT | 1.04 ± 0.051
AATATAGGGT | 0.997 ± 0.028

Sequence | switch fluorescence ratio
AATATATTGA | 0.996 ± 0.02
AATATATTGG | 1.028 ± 0.0042
AATATCATAC | 1.05 ± 0.021
AATATCCGTA | 1.01 ± 0.033
AATATGATTG | 1.02 ± 0.019
AATATGGAGG | 0.985 ± 0.033
AATATGGGGG | 1.01 ± 0.025
AATATGGGTG | 1.08 ± 0.01
AATATGTATC | 1.003 ± 0.0029
AATATGTCTG | 0.937 ± 0.06
AATATGTGGT | 0.972 ± 0.015
AATATTGTT | 0.996 ± 0.01
AATATTTAGG | 0.987 ± 0.035
AATATTTCAT | 0.966 ± 0.025
AATATTTCCA | 0.974 ± 0.023
AATATTTCGG | 0.99 ± 0.0092
AATATTTGG | 1.008 ± 0.0091
AATATTTTTT | 1.01 ± 0.049
AATCAAAAAG | 0.959 ± 0.018
AATCAGACGG | 1.02 ± 0.021
AATCAGGCCT | 1.05 ± 0.043
AATCATAGTA | 1.011 ± 0.0089
AATCATGTGC | 1 ± 0.04
